Results on 33 substances are retold here after publication PMC12700808.

Experiment [1] deals with Nup98-type FG domain comprising 52 perfect 12-mer GLFG repeat units (prf.GLFG52x12). Description: FG phase partitioning assay.
Experiment [2] shares this target. Description: partitioning into an FG phase (confocal laser scanning microscopy); prf.GLFG52x12 domain phase-separated into FG particles; fluorescent species added, scanned 1 h later; 50 mM Tris-HCl pH 7.5, 150 or 250 mM NaCl, 0.5 mM IP6; signal in:out, or rim and centre normalised to wild type.
Experiment [3] has the same target. Briefly: FG phase partitioning assay. This is another data set of the same source.
[4] abbreviates: fluorescence intensity at rim of FG particles.
Where [5] appears, read: fluorescence intensity in center of FG particles.
Where [6] appears, read: signal in center of FG particles.

As for “20-nm T1 pentamer-only capsid spheres (CA P1A+G60A+G61P), EGFP-labelled A92E”, the response in experiment [1] (setting [4]) is 11000; in experiment [1] (setting [5]), 5300. Moreover, the values for the percent of parent in experiment [1] (signal at rim of FG particles) and in experiment [1] (setting [6]) were 58% and 28%, respectively.

As to “20-nm T1 pentamer-only capsid spheres (CA P1A+G60A+G61P), EGFP-labelled G94D”, the response in experiment [1] (setting [4]) stood at 15000; in experiment [1] (setting [5]) it was 9600. Also, in experiment [1] (signal at rim of FG particles), the percent of parent is 79%.

For the substance “20-nm T1 pentamer-only capsid spheres (CA P1A+G60A+G61P), EGFP-labelled H87Q”, the response in experiment [1] (setting [4]) was determined as 15000; in experiment [1] (setting [5]) it was 13000. The percent of parent in experiment [1] (signal at rim of FG particles) was 79%; in experiment [1] (setting [6]) it was 68%.

On to “20-nm T1 pentamer-only capsid spheres (CA P1A+G60A+G61P), EGFP-labelled H87Q; A92E; G94D”, for which the response in experiment [1] (setting [4]) turned out to be 2300; in experiment [1] (setting [5]) it was 190. The values for the percent of parent in experiment [1] (signal at rim of FG particles) and in experiment [1] (setting [6]) were 12% and 1%, respectively.

As to “20-nm T1 pentamer-only capsid spheres (CA P1A+G60A+G61P), EGFP-labelled N57A”, the results for the response in experiment [1] (setting [4]) and in experiment [1] (setting [5]) were 8500 and 400, respectively. Further, the figures for the percent of parent in experiment [1] (signal at rim of FG particles) and in experiment [1] (setting [6]) were 45% and 2.1%, respectively.

For the substance “20-nm T1 pentamer-only capsid spheres (CA P1A+G60A+G61P), EGFP-labelled Q9E”, the response in experiment [1] (setting [4]) is 15000; in experiment [1] (setting [5]), 14000. Besides, the percent of parent turned out to be 79% in experiment [1] (signal at rim of FG particles) and 74% in experiment [1] (setting [6]).

Consider “20-nm T1 pentamer-only capsid spheres (CA P1A+G60A+G61P), EGFP-labelled Q9E; A92E”, for which the response in experiment [1] (setting [4]) turned out to be 5800; in experiment [1] (setting [5]), 290. The values for the percent of parent in experiment [1] (signal at rim of FG particles) and in experiment [1] (setting [6]) were 31% and 1.5%, respectively.

In experiment [1] (setting [4]), “20-nm T1 pentamer-only capsid spheres (CA P1A+G60A+G61P), EGFP-labelled V86E; A88E; I91E; A92E” gave a response of 74. Besides, the percent of parent in experiment [1] (signal at rim of FG particles) and in experiment [1] (setting [6]) was 0.4% throughout.

As for “CLPs of CA A88E, filled with sinGFP4a (complex)”, the fold reduction of partitioning against wild type in experiment [2] was more than 10 fold.

In experiment [2], “CLPs of CA A92E, filled with sinGFP4a (complex)” showed a fold reduction of partitioning against wild type of more than 10 fold and a partitioning, percent of the wild-type level (% of the wild-type level) of 5.

On to “CLPs of CA G94D, filled with sinGFP4a (complex)”, for which the partitioning, percent of the wild-type level (% of the wild-type level) in experiment [2] was 5.

Take “CLPs of CA H87E, filled with sinGFP4a (complex)”: the fold reduction of partitioning against wild type in experiment [2] turned out to be 15 fold.

Regarding “CLPs of CA H87Q, filled with sinGFP4a (complex)”, the reduction in partitioning against wild type in experiment [2] was 50%.

In experiment [2], “CLPs of CA I91E, filled with sinGFP4a (complex)” registered a fold reduction of partitioning against wild type of more than 10 fold.

As for “CLPs of CA M96E, filled with sinGFP4a (complex)”, in experiment [2], the fold reduction of partitioning against wild type is more than 10 fold.

As for “CLPs of CA R132K, filled with sinGFP4a (complex)”, in experiment [2], the reduction in partitioning against wild type came to 50%.

On to “CLPs of CA V86E, filled with sinGFP4a (complex)”, for which the fold reduction of partitioning against wild type in experiment [2] was more than 10 fold.

EGFP: in experiment [2], the partition coefficient (in:out) was less than 0.1.

As to “conical CLPs (capsid-like particles) of wild-type CA (CA-P1A), EGFP-labelled (complex)”, the partition coefficient (in:out) in experiment [2] is 1000.

As to “conical CLPs (capsid-like particles) of wild-type CA (CA-P1A), filled with sinGFP4a A88G”, the response in experiment [1] (setting [4]) worked out at 26000; in experiment [1] (setting [5]), 30000. The percent of parent in experiment [1] (signal at rim of FG particles) and in experiment [1] (setting [6]) was 90% throughout.

For “conical CLPs (capsid-like particles) of wild-type CA (CA-P1A), filled with sinGFP4a A92G”, the response is 26000 in experiment [1] (setting [4]) and 32000 in experiment [1] (setting [5]). The percent of parent in experiment [1] (signal at rim of FG particles) and in experiment [1] (setting [6]) was 90% in each case.

“conical CLPs (capsid-like particles) of wild-type CA (CA-P1A), filled with sinGFP4a G116A”: the figures for the response in experiment [3] (setting [4]) and in experiment [3] (setting [5]) were 27000 and 32000, respectively.

As to “conical CLPs (capsid-like particles) of wild-type CA (CA-P1A), filled with sinGFP4a H87G”, the response in experiment [1] (setting [4]) and in experiment [1] (setting [5]) was 30000 each time. Moreover, the percent of parent in experiment [1] (setting [6]) was 90%.

Take “conical CLPs (capsid-like particles) of wild-type CA (CA-P1A), filled with sinGFP4a I91G”: the response in experiment [1] (setting [4]) was determined as 30000; in experiment [1] (setting [5]), 33000.

Regarding “conical CLPs (capsid-like particles) of wild-type CA (CA-P1A), filled with sinGFP4a L136M”, the response came to 28000 in experiment [3] (setting [4]) and 30000 in experiment [3] (setting [5]).

In the case of “conical CLPs (capsid-like particles) of wild-type CA (CA-P1A), filled with sinGFP4a M96G”, the response was 28000 in experiment [1] (setting [4]) and 30000 in experiment [1] (setting [5]). The percent of parent in experiment [1] (setting [6]) was found to be 90%.

In the case of “conical CLPs (capsid-like particles) of wild-type CA (CA-P1A), filled with sinGFP4a N57A; A92E”, the response in experiment [1] (setting [4]) was determined as 14000; in experiment [1] (setting [5]), 1100. Moreover, the percent of parent came out at 52% in experiment [1] (signal at rim of FG particles) and 4.2% in experiment [1] (setting [6]).

Consider “conical CLPs (capsid-like particles) of wild-type CA (CA-P1A), filled with sinGFP4a N57A; A92E; G94D”, for which the values for the response in experiment [1] (setting [4]) and in experiment [1] (setting [5]) were 4300 and 660, respectively. Further, the percent of parent in experiment [1] (signal at rim of FG particles) came out at 16%; in experiment [1] (setting [6]) it was 2.5%.

As to “conical CLPs (capsid-like particles) of wild-type CA (CA-P1A), filled with sinGFP4a N57A; G94D”, the figures for the response in experiment [1] (setting [4]) and in experiment [1] (setting [5]) were 17000 and 1200, respectively. Besides, the percent of parent came out at 63% in experiment [1] (signal at rim of FG particles) and 4.6% in experiment [1] (setting [6]).

Turning to “conical CLPs (capsid-like particles) of wild-type CA (CA-P1A), filled with sinGFP4a N57A; H87Q; A92E; G94D”, the response in experiment [1] (setting [4]) was found to be 370; in experiment [1] (setting [5]) it was 440. The percent of parent in experiment [1] (signal at rim of FG particles) came to 1.4%; in experiment [1] (setting [6]) it was 1.7%.

In the case of “conical CLPs (capsid-like particles) of wild-type CA (CA-P1A), filled with sinGFP4a R143A”, the response in experiment [3] (setting [4]) worked out at 28000; in experiment [3] (setting [5]), 30000.

On to “conical CLPs (capsid-like particles) of wild-type CA (CA-P1A), filled with sinGFP4a V86G”, for which the response was 27000 in experiment [1] (setting [4]) and 31000 in experiment [1] (setting [5]). Moreover, the percent of parent in experiment [1] (signal at rim of FG particles) and in experiment [1] (setting [6]) was 90% throughout.

mCherry returned a partition coefficient (in:out) in experiment [2] of less than 0.1.
